Data on two molecules can be found in PMC12834914, “The biochemical dynamics of the glycogen phosphatase laforin directly impact brain metabolism” (The Journal of Biological Chemistry, 2025).

This experiment concerns the target T1, laforin C266S (LexA fusion) (human, UniProt O95278 1-331, C266S).
T1 construct: laforin, glycogen phosphatase encoded by EPM2A, catalytic cysteine mutated to serine; in mouse laforin the same change is C265S; also called LCS; laforin C/S; source: yeast two-hybrid fusion (S. cerevisiae, pEG202)
T1 sequence (looked up): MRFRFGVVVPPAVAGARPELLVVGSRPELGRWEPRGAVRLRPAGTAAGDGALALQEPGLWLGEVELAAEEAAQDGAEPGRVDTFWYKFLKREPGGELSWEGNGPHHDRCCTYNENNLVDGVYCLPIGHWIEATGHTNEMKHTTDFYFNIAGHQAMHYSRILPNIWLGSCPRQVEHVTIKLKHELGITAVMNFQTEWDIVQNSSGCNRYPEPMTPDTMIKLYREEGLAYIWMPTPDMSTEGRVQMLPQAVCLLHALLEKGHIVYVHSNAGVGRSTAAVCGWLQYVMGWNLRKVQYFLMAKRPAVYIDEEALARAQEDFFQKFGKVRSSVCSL
The experiment in a line: two-hybrid; LexA-laforin (pEG202) with Gal4 activation domain-malin or -PTG (pACT2) in S. cerevisiae; beta-galactosidase activity in yeast cell extract, in Miller Units. The following applies: partners not purified.

B1: protein targeting to glycogen (Gal4 activation domain fusion) (natural protein, UniProt Q9UQK1 1-317, looked up)
chain: MSCTRMIQVLDPRPLTSSVMPVDVAMRLCLAHSPPVKSFLGPYDEFQRRHFVNKLKPLKSCLNIKHKAKSQNDWKCSHNQAKKRVVFADSKGLSLTAIHVFSDLPEEPAWDLQFDLLDLNDISSALKHHEEKNLILDFPQPSTDYLSFRSHFQKNFVCLENCSLQERTVTGTVKVKNVSFEKKVQIRITFDSWKNYTDVDCVYMKNVYGGTDSDTFSFAIDLPPVIPTEQKIEFCISYHANGQVFWDNNDGQNYRIVHVQWKPDGVQTQMAPQDCAFHQTSPKTELESTIFGSPRLASGLFPEWQSWGRMENLASYR
notes: protein targeting to glycogen (PTG); also called PTG; source: yeast two-hybrid fusion (S. cerevisiae, pACT2)
As for B1, the “fold signal against WT laforin” value was about 2 fold.

B2: malin (Gal4 activation domain fusion) (natural protein, UniProt Q6VVB1 1-395, looked up)
chain: MAAEASESGPALHELMREAEISLLECKVCFEKFGHRQQRRPRNLSCGHVVCLACVAALAHPRTLALECPFCRRACRGCDTSDCLPVLHLIELLGSALRQSPAAHRAAPSAPGALTCHHTFGGWGTLVNPTGLALCPKTGRVVVVHDGRRRVKIFDSGGGCAHQFGEKGDAAQDIRYPVDVTITNDCHVVVTDAGDRSIKVFDFFGQIKLVIGGQFSLPWGVETTPQNGIVVTDAEAGSLHLLDVDFAEGVLRRTERLQAHLCNPRGVAVSWLTGAIAVLEHPLALGTGVCSTRVKVFSSSMQLVGQVDTFGLSLYFPSKITASAVTFDHQGNVIVADTSGPAILCLGKPEEFPVPKPMVTHGLSHPVALTFTKENSLLVLDTASHSIKVYKVDWG
notes: malin; source: yeast two-hybrid fusion (S. cerevisiae, pACT2)
Take B2: the “fold signal against WT laforin” value was about 2 fold.
